Key:
[1] = target: human TIGIT-his protein (human) (UniProt Q495A1); assay: BLI (ForteBio), IgG on AHQ sensor, 100 nM TIGIT-his, monovalent, 1:1 model
[2] = target: cynomolgus TIGIT-his protein (cynomolgus monkey); assay: as above
[3] = target: human TIGIT on cells (human) (UniProt Q495A1); assay: flow cytometry, blocking of human CD155-mouse IgG2a Fc (2 ug/mL) binding to CHO-huTIGIT cells
[4] = target: human TIGIT on cells (human) (UniProt Q495A1); assay: flow cytometry on activated human primary T cells (CD3/CD28 beads + IL-2, 48 h), fluorescent secondary antibody; y axis Positive cells(%), x axis Concentration(nM); EC50 from the table drawn under the curves
[5] = target: human TIGIT on cells (human) (UniProt Q495A1); assay: flow cytometry on CHO-huTIGIT cells
[6] = target: cynomolgus TIGIT on cells (cynomolgus monkey); assay: flow cytometry on CHO-cynoTIGIT cells
Chain of cynomolgus TIGIT on cells (cynomolgus monkey) (chain, as listed by the source): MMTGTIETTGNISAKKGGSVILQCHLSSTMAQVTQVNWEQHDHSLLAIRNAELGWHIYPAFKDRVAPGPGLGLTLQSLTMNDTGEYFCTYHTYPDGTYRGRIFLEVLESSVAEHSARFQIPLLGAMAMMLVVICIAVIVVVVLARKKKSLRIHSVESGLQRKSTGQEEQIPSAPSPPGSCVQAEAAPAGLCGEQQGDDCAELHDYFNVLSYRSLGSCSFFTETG

Chain of human TIGIT on cells (human) (Q495A1 22-244): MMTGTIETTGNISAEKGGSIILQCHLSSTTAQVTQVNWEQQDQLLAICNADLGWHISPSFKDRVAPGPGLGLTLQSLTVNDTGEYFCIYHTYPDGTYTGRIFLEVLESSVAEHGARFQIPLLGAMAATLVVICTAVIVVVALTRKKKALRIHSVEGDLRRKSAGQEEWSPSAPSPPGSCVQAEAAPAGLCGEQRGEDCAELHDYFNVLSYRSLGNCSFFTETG
Chain of human TIGIT-his protein (human) (Q495A1 22-141): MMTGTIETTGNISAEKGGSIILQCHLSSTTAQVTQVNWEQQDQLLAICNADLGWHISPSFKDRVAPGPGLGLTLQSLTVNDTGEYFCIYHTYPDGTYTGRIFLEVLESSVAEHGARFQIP
Chain of cynomolgus TIGIT-his protein (cynomolgus monkey) (chain, as listed by the source): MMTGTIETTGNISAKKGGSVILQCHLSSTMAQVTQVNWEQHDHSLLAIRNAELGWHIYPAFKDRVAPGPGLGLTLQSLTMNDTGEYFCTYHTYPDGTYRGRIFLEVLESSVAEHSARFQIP

Work on Tiragolumab (antibody) yielded a Kd [1] of 0.87 nM, a Kd [2] of 3.5 nM and an IC50 [3] of 0.63 nM. The EC50 [4] was 0.274 nM, the EC50 [5] was 1.35 nM and the EC50 [6] was 4.18 nM.

Source: patent publication US20240352118A1
